Among the data in paper PMC7846742 (2021) are koff and Kd values, retold here.

The assay concerns the target AviTag-His6-OAZ-GSY-SPM-Ctag (wt, with C175A) (human | Neisseria meningitidis …, UniProt Q9JYV5 414-657, biotin on the AviTag). The assay can be described thus: SPR.

B1: His6-ODC-Ctag (human Ornithine Decarboxylase) (enzyme)
chain: NNFGNEEFDCHFLDEGFTAKDILDQKINEVSSSDDKDAFYVADLGDILKKHLRWLKALPRVTPFYAVKCNDSKAIVKTLAATGTGFDCASKTEIQLVQSLGVPPERIIYANPCKQVSQIKYAANNGVQMMTFDSEVELMKVARAHPKAKLVLRIATDDSKAVCRLSVKFGATLRTSRLLLERAKELNIDVVGVSFHVGSGCTDPETFVQAISDARCVFDMGAEVGFSMYLLDIGGGFPGSEDVKLKFEEITGVINPALDKYFPSDSGVRIIAEPGRYYVASAFTLAVNIIAKKIVLKEQTGSDDEDESSEQTFMYYVNDGVYGSFNCILYDHAHVKPLLQKRPKPDEKYYSSSIWGPTCDGLDRIVERCDLPEMHVGDWMLFENMGAYTVAAASTFNGFQRPTIYYVMSGPAWQLMQQFQ
B1: the koff was found to be 0.0028 s⁻¹.

B2: ODC ΔN 4KR (enzyme)
chain: DCHFLDEGFTAKDILDQKINEVSSSDDKDAFYVADLGDILKKHLRWLKALPRVTPFYAVKCNDSRAIVRTLAATGTGFDCASRTEIQLVQSLGVPPERIIYANPCKQVSQIRYAANNGVQMMTFDSEVELMKVARAHPKAKLVLRIATDDSKAVCRLSVKFGATLRTSRLLLERAKELNIDVVGVSFHVGSGCTDPETFVQAISDARCVFDMGAEVGFSMYLLDIGGGFPGSEDVKLKFEEITGVINPALDKYFPSDSGVRIIAEPGRYYVASAFTLAVNIIAKKIVLKEQTGSDDEDESSEQTFMYYVNDGVYGSFNCILYDHAHVKPLLQKRPKPDEKYYSSSIWGPTCDGLDRIVERCDLPEMHVGDWMLFENMGAYTVAAASTFNGFQRPTIYYVMSGPAWQLMQQFQNPDFPPEVEEQDASTLPVSCAWESGMKRHRAACASASIN
B2 showed a Kd of 22 nM and a koff of 0.0024 s⁻¹.
